Test results: patent US20200231671A1 (E R SQUIBB AND SONS L L C, published 2020)
Residue numbers refer to the chain shown, from its start. Where no end group is shown, it is not given here.

B1: 25E3 human monoclonal antibody (antibody, IgG1, V domains shown)
VH: EVQLVESGGGVVRPGGSLRLSCAASGFTFDDYGMSWVRQAPGKGLEWVSGINWNGGSTYYADSVKGRFTISGDNAKNSLYLQMNSLRAEDTALYYCTTGGYWGQGTLVTVSS
VL: AIQLTQSPSSLSASVGDRVTITCRASQGIRSALAWYQQKPGKAPKLLIYDASSLESGVPSRFSGSGSGTDFTLTISSLQPEDFATYYCQQFNSYPYTFGQGTKLEIK
B2: 25F7 human monoclonal antibody (antibody, IgG1, V domains shown)
VH: QVQLQQWGAGLLKPSETLSLTCAVYGGSFSDYYWNWIRQPPGKGLEWIGEINHNGNTNSNPSLKSRVTLSLDTSKNQFSLKLRSVTAADTAVYYCAFGYSDYEYNWFDPWGQGTLVTVSS
VL: EIVLTQSPATLSLSPGERATLSCRASQSISSYLAWYQQKPGQAPRLLIYDASNRATGIPARFSGSGSGTDFTLTISSLEPEDFAVYYCQQRSNWPLTFGQGTNLEIK
notes: also called 25F7-FITC (IgG1 version)
B3: 8B7 human monoclonal antibody (antibody, IgG4, V domains shown)
VH: QVQLQQWGAGLLKPSETLSLTCAVYGGSFSGYYWSWIRQPPGKGLEWIGEINHRGNTNCNPSLKSRVTISGDTSKKQFALKLNSVTAADTAVYYCARGYDILTGYYEDSWGPGTLVTVSS
VL: B2 VL with I29V, D50N, Q100G, N103K, L104V
notes: also called 8B7-FITC
B4: 26H10 human monoclonal antibody (antibody, IgG1, V domains shown)
VH: QVQLVESGGGVVQPGRSLRLSCAASGFTFSSYGMHWVRQAPGKGLEWVAVIWYDGSNKYYADSVKGRFTISRDNSKNTLYLQMNSLRAEDTAVYYCAREWAVASWDYGMDVWGQGTTVTVSS
VL: not shown
notes: also called 26H10-FITC

Legend:
[1] = biological target: T1, mouse LAG-3 (cell surface, 3A9 mouse T cell hybridoma) (mouse, UniProt Q61790 24-521); assay: flow cytometry, 3A9 cells transfected with mouse LAG-3
T1 construct: whole, on cells; also called mLAG-3
T1 sequence (looked up): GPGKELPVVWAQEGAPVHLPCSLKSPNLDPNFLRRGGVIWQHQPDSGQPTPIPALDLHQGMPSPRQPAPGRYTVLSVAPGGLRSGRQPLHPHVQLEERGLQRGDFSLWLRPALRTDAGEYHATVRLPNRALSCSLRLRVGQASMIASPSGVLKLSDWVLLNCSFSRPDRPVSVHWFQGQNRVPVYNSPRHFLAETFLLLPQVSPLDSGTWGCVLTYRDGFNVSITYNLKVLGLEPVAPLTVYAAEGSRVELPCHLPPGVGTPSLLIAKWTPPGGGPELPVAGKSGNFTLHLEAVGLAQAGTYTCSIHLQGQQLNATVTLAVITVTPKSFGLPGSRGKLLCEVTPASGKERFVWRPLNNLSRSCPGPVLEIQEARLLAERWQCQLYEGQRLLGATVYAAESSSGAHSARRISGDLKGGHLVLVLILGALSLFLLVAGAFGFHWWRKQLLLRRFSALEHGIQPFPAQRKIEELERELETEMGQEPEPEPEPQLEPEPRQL
Method: To determine whether the antibodies cross-reacted with mouse LAG-3, similar flow cytometry studies to those described above were performed using as the target cell a mouse T cell hybridoma cell line (3A9) that had been transfected to express mouse LAG-3 on its cell surface, followed by FACS analysis to detect antibody binding.

[2] = biological target: T2, rhesus monkey LAG-3 full length extra loop peptide (rhesus monkey); assay: ELISA on rhesus full length extra loop peptide
T2 construct: Used in a 'similar peptide ELISA'; Biotinylation is not restated for this peptide; also called Rhesus Extra Loop
T2 peptide: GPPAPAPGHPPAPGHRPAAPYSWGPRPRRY
Method: To further examine binding of these antibodies to the extra loop peptide region, additional ELISA assays were performed. In an ELISA assay using the human full-length extra loop peptide (SEQ ID NO: 79), EC₅₀ values for binding were determined for 25E3, 25F7 and 8B7. Additionally, a similar peptide ELISA was conducted using the full length extra loop peptide sequence from rhesus monkey LAG-3, having the sequence […] (SEQ ID NO: 90), and EC₅₀ values for binding were determined for 25F7 and 8B7. […] Moreover, antibodies 25F7 and 8B7 also bind to the rhesus LAG-3 extra loop peptide region, albeit less well compared to the human sequence, which may be due to the species sequence divergence in this polypeptide. The results also confirm that the 26H10 antibody is not capable of recognizing the LAG-3 extra loop peptide.

[3] = biological target: T3, LAG-3 extra loop scan peptide PGPHPAAPSSWG (human, also: conjugated to biotin); assay: peptide scan ELISA
T3 construct: 12-mer overlapping scan peptide of the extra loop
T3 peptide: PGPHPAAPSSWG
Method: (§1) In the LAG-3 protein, the immunoglobulin-like first domain of the extracellular region contains an exposed “extra loop” having the amino acid sequence: […] (SEQ ID NO: 79). To examine the binding of 25E3, 25F7, 8B7 and 26H10 to this region of LAG-3, and map the epitope bound by each antibody, a peptide scan experiment was performed across this region. A series of 10 overlapping peptides that scanned across the full length of the extra loop sequence were prepared and conjugated to biotin. For ELISA analysis, microtiter plates pre-coated with streptavidin (Sigma-Aldrich, Cat # M5432) were used to capture the biotinylated loop peptide-conjugates applied in a 100 μl volume at a concentration of 2 μg/mL and incubated 18 hours at 4° C., after which the plates were washed 3 times and blocked at room temperature for 1 hour with blocking buffer (1×PBS+10% FBS). Next, human anti-LAG-3 antibodies serially diluted 3-fold in blocking buffer from 10 μg/mL were applied and the plates were incubated at room temperature for 2 hours and then washed three times. To detect bound human antibody a HRP-conjugated goat anti-human kappa light chain antibody (Bethyl Laboratories, Cat # A80-115P) was diluted to 1 μg/mL in blocking buffer and applied to assay wells for 1 hour followed by three washes and application of TMB substrate (eBioscience, Cat #00-4201-56). Optical density readings at 650 nm wavelength were made on a Spectramax 340PC spectrophotometer ([…].).

[4] = biological target: T4, LAG-3 extra loop scan peptide PAAPSSWGPRPR (human, also: conjugated to biotin); assay: peptide scan ELISA
T4 construct: 12-mer overlapping scan peptide of the extra loop
T4 peptide: PAAPSSWGPRPR
Method: as §1

[5] = biological target: T5, LAG-3 extra loop scan peptide PHPAAPSSWGPR (human, also: conjugated to biotin); assay: peptide scan ELISA
T5 construct: 12-mer overlapping scan peptide of the extra loop
T5 peptide: PHPAAPSSWGPR
Method: as §1

Binder | binding result [1] | EC50 [2] [nM] | binding result [3] | binding result [4] | binding result [5] | binding result [2]
B1 | no binding | – | – | – | – | –
B2 | no binding | 13.1 | binds | binds | binds | –
B3 | no binding | 0.6 | binds | binds | binds | –
B4 | no binding | – | no binding (tested: 10 µg/mL) | no binding (tested: 10 µg/mL) | no binding (tested: 10 µg/mL) | no binding
